From article PMC5006282

Columns and labels:
Experiment in all cases: pull-down MS
Settings in all cases: 5' biotin on sense strand; DNA immobilised on streptavidin beads in 20 mM Tris-HCl pH 8.0, 200 mM NaCl, 0.5 mM EDTA, 0.03% NP40; protein binding buffer and temperature not in the …
[1] = molecular target: HCF-1 (Homo sapiens (Raji, Molt4)) (UniProt P51610)
[2] = molecular target: Helios (Homo sapiens (Raji)) (UniProt Q9UKS7)
[3] = molecular target: NFKB2 (NF-kappa B p100/p52) (Homo sapiens (Raji)) (UniProt Q00653)
[4] = molecular target: Ikaros (Homo sapiens (Raji, Molt4 nuclear extract)) (UniProt Q13422)
[5] = molecular target: Aiolos (Homo sapiens (Raji)) (UniProt Q9UKT9)
UniProt Q9UKT9, sequence (Q9UKT9 whole entry): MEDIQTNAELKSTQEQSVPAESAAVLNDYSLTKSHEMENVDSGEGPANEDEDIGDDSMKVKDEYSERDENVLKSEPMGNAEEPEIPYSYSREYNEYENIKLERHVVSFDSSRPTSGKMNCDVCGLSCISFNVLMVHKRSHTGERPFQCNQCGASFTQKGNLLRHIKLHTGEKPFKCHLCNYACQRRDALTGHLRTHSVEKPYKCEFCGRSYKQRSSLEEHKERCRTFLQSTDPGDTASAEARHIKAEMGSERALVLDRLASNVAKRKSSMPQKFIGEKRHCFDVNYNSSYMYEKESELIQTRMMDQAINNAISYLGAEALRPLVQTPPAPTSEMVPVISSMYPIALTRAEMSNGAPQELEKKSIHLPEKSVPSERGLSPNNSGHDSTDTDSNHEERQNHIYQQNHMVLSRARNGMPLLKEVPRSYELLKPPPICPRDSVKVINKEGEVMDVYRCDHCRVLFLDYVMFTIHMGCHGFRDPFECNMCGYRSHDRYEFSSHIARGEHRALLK

UniProt Q13422, sequence (Q13422 whole entry): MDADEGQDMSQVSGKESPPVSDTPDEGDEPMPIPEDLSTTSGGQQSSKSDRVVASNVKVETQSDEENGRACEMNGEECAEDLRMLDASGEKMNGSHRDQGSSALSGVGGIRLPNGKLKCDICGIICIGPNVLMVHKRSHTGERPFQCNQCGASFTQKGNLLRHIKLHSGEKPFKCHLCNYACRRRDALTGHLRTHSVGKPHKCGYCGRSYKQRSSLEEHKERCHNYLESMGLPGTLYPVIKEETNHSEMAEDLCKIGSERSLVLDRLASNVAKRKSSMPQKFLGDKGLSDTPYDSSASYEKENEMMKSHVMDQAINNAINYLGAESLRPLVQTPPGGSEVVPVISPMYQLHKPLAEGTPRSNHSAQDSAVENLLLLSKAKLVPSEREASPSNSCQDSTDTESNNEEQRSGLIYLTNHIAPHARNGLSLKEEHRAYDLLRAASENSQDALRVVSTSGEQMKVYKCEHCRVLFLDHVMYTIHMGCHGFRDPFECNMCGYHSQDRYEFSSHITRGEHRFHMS
UniProt Q9UKS7, sequence (Q9UKS7 whole entry): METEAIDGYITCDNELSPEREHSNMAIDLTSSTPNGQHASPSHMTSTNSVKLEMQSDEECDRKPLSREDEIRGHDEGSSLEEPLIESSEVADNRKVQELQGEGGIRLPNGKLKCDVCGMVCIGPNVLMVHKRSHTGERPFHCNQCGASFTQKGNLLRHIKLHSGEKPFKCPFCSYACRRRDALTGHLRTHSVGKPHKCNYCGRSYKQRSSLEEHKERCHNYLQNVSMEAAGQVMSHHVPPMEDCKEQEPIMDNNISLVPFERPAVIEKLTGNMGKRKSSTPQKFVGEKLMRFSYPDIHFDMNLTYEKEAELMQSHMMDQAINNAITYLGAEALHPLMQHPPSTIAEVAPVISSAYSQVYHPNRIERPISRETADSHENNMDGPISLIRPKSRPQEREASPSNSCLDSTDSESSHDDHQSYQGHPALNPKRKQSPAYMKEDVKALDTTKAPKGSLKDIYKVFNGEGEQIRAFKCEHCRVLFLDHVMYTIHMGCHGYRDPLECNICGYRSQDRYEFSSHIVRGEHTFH
UniProt Q00653, sequence (Q00653 whole entry): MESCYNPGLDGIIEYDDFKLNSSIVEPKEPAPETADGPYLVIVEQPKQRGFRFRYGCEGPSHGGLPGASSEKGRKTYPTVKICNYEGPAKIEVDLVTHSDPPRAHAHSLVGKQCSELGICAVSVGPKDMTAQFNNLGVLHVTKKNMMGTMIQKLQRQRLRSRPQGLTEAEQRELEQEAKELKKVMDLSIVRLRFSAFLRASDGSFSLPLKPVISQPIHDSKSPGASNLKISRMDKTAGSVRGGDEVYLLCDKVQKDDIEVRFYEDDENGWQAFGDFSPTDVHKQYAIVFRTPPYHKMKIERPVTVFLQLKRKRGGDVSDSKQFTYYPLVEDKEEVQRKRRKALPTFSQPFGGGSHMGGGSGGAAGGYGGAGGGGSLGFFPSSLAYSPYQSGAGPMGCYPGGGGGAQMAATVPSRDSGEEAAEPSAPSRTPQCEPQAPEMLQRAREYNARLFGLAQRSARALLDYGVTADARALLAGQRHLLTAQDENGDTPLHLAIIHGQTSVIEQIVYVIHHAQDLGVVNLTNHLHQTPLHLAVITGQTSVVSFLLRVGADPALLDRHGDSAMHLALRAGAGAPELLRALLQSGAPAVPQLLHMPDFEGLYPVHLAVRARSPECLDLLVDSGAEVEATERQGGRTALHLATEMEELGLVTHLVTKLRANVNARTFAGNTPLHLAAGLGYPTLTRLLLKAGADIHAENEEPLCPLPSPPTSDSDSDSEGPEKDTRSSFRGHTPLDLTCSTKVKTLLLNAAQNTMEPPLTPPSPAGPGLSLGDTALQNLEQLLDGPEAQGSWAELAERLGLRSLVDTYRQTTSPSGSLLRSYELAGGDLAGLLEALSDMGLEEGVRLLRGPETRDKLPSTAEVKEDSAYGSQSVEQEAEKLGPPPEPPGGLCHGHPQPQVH
UniProt P51610, sequence (P51610 whole entry): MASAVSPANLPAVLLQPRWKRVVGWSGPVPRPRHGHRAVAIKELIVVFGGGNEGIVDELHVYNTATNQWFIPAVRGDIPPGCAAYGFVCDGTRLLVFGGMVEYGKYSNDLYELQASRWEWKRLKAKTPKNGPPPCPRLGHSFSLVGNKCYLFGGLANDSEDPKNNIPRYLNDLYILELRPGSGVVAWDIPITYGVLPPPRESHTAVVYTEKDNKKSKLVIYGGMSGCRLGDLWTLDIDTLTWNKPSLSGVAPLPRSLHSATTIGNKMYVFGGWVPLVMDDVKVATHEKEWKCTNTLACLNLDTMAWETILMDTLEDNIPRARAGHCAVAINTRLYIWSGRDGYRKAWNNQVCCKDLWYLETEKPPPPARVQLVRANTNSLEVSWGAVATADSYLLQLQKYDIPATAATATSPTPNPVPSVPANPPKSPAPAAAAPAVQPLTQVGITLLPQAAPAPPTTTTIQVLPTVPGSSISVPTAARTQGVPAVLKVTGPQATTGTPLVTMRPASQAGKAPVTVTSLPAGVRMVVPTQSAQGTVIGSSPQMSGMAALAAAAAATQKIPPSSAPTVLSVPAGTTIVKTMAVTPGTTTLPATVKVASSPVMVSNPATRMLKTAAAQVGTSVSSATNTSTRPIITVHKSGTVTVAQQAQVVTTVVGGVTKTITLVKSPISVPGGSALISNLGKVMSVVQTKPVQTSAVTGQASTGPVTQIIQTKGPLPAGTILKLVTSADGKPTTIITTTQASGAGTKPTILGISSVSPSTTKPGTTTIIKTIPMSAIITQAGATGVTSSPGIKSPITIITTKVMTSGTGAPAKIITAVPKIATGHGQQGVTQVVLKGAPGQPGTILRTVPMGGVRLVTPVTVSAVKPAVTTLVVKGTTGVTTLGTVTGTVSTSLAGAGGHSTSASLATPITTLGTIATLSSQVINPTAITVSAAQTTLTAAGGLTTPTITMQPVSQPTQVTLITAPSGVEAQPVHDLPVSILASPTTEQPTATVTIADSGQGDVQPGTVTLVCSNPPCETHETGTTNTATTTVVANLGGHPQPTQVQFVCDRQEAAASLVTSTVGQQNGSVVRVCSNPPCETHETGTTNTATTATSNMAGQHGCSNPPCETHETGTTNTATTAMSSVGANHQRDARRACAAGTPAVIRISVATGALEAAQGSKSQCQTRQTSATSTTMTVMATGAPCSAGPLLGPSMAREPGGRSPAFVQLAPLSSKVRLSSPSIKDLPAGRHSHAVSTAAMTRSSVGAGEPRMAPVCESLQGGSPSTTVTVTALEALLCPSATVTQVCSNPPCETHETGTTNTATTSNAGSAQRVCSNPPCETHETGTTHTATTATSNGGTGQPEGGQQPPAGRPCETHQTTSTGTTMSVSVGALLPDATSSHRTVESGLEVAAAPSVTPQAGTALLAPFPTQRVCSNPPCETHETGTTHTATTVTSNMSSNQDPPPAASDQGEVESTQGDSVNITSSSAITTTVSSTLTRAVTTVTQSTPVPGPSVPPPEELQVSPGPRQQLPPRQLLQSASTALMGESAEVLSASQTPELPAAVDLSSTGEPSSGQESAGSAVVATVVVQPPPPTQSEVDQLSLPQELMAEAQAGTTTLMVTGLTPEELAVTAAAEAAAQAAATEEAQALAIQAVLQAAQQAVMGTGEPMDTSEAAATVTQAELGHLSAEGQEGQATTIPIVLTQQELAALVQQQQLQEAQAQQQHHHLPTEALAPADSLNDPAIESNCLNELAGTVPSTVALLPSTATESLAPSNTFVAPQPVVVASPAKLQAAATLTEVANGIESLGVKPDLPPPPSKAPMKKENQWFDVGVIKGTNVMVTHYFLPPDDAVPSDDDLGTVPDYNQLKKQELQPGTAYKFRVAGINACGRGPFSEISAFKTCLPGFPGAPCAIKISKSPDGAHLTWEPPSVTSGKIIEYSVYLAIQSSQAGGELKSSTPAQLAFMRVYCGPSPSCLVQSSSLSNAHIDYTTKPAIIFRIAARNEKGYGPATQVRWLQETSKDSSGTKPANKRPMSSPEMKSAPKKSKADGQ

“CAAAACTGCAGGCAACTAGAACTACATTTCCCGGCGTGATTTGCTGCGGAACGAACTACATCTCCCGGCAGGCTGCG (double strand) [Tandem M4 WT]” was tested, and the binding signal (SILAC ratio WT/MT) [1] was 19, the binding signal (SILAC ratio WT/MT) [2] was > 100 and the binding signal (SILAC ratio WT/MT) [3] was 31.8. For the same sequence, the binding signal (SILAC ratio WT/MT) [4] was > 100 and the binding signal (SILAC ratio WT/MT) [5] was > 100.
